Measured values: patent publication US20030162228A1
Where no end group is shown, it is not given here.

T1: TAK1 expressed from yeast 2-hybrid expression vector pBTMHu11F (Homo sapiens (Human)) (UniProt O43318)
T1 sequence: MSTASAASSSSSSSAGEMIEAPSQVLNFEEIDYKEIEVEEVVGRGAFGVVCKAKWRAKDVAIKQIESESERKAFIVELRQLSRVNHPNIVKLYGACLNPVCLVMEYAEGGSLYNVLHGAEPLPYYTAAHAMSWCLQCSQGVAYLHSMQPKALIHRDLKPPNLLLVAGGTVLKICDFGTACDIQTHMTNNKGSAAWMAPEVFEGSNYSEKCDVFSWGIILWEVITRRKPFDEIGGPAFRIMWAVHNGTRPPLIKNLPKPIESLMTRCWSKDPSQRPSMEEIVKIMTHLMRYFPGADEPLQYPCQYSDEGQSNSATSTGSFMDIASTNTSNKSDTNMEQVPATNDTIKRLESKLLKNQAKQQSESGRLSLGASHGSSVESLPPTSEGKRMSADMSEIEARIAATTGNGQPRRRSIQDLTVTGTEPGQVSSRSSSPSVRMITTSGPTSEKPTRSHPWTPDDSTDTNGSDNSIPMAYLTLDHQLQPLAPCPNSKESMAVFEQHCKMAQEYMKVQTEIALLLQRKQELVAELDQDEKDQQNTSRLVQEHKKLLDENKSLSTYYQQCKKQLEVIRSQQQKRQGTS


What follows are binders tested against T1, TAK1 expressed from yeast 2-hybrid expression vector pBTMHu11F (Homo sapiens (Human)) (assay: cell-based or functional assay).

Row | Binder | β-galactosidase activity of yeast L40 (yeast 2-hybrid), ratio based on TAB1C68 (ratio to TAB1C68)
1 | VDFAEFYRLWSVDHGEQSVVTAP (peptide, not shown: large carriers, also: fusion with GAL4 transcription activation domain) [TAB1C23, fusion with the GAL4 transcription activated domain (pGAD-TAB1C23)] | 0.05
2 | DFAEFYRLWSVDHGEQSVVTAP (peptide, not shown: large carriers, also: fusion with GAL4 transcription activation domain) [TAB1C22, fusion with the GAL4 transcription activated domain (pGAD-TAB1C22)] | 0.03
3 | YVDFAEFYRLWSVDHGEQSVVTAP (peptide, not shown: large carriers, also: fusion with GAL4 transcription activation domain) [TAB1C24, fusion with the GAL4 transcription activated domain (pGAD-TAB1C24)] | 0.35

Next, values leading:

Row | β-galactosidase activity of yeast L40 (yeast 2-hybrid), ratio based on TAB1C68 (ratio to TAB1C68) | Binder
4 | 0.03 | FAEFYRLWSVDHGEQSVVTAP (peptide, not shown: large carriers, also: fusion with GAL4 transcription activation domain) [TAB1C21, fusion with the GAL4 transcription activated domain (pGAD-TAB1C21)]
5 | 0.03 | AEFYRLWSVDHGEQSVVTAP (peptide, not shown: large carriers, also: fusion with GAL4 transcription activation domain) [TAB1C20, fusion with the GAL4 transcription activated domain (pGAD-TAB1C20)]
